According to paper PMC9576894:

Target: MUC4 glycopeptide
Assay: peptide or protein array; glycan microarray, components printed on epoxy slides; re-expressed antibody in solution at four concentrations from 1.5 to 100 μg/ml on the 873-component array; PBS pH 7.4, 0.05% Tween-20, 3% BSA; 37 °C, 3.5 h; detected with Cy3 anti-human IgG; apparent KD estimated by the method of Gordus and MacBeath

B1: ADI-47299 (antibody, V domains shown)
VH: QVQLVQSGGGVVQPGRSLRLSCAASGFTFRLYSMHWVRQAPGKGLEWVGVISHTVTDKLYADSVKGRFSVSRDNSKNTLFLQMDSLRAEDTAVYYCARDGFDYWGQGTLVTVSS
VL: EIVMTQSPLSLPVTLGQPASISCKSSQSLVYSDGDTYLNWFQQRPGQSPRRLIYKVSKRDSGVPDRFSGSGSGTDFTLKISRVEAEDLGVYYCMQGTHWPLTFGPGTKLEIK
Kd: > 1000 nM
